Measurements: the supplement of paper PMC9876800

These substances were tested on peptide library, one residue held at a place counted from the S/T acceptor (assay: relative phosphorylation of the sub-library (ratio to the mean residue at this position); human; higher = residue favoured). Conditions: A fixed; at +1.
Method in brief: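 In 384-well plates, purified recombinant kinases (human or orthologue constructs) were incubated for 90 min under kinase-specific conditions with 50 μM biotinylated degenerate peptide sub-libraries and 50 μM ATP spiked with γ-32P-ATP. Each sub-library fixed a single residue at one position around a central Ser/Thr. Relative sub-library phosphorylation, measured by phosphorimaging and densitometry of streptavidin membrane spots, is given as a ratio to the mean residue at that position.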

Sequence of SIK3, construct: aa1-307 (Q9Y2K2 1-307, looked up): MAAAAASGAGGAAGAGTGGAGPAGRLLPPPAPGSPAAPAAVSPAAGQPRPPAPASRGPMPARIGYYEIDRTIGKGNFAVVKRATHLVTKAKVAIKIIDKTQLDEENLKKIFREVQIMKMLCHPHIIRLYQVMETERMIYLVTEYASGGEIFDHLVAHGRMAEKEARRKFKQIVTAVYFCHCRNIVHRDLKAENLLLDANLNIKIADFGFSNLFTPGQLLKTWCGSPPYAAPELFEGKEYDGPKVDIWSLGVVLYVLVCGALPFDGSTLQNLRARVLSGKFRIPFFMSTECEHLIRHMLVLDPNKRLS
Sequence of NEK6, construct: Full length (Q9HC98 whole entry, looked up): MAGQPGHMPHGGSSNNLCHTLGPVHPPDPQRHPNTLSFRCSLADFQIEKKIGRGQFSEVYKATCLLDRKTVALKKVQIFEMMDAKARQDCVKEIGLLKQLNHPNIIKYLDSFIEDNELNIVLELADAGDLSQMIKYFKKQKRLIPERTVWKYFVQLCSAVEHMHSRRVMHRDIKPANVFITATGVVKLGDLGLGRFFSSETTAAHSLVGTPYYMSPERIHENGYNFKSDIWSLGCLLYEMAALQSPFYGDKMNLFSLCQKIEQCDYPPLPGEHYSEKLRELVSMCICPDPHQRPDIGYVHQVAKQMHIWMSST
Sequence of MAP4K5, construct: Full length (Q9Y4K4 whole entry, looked up): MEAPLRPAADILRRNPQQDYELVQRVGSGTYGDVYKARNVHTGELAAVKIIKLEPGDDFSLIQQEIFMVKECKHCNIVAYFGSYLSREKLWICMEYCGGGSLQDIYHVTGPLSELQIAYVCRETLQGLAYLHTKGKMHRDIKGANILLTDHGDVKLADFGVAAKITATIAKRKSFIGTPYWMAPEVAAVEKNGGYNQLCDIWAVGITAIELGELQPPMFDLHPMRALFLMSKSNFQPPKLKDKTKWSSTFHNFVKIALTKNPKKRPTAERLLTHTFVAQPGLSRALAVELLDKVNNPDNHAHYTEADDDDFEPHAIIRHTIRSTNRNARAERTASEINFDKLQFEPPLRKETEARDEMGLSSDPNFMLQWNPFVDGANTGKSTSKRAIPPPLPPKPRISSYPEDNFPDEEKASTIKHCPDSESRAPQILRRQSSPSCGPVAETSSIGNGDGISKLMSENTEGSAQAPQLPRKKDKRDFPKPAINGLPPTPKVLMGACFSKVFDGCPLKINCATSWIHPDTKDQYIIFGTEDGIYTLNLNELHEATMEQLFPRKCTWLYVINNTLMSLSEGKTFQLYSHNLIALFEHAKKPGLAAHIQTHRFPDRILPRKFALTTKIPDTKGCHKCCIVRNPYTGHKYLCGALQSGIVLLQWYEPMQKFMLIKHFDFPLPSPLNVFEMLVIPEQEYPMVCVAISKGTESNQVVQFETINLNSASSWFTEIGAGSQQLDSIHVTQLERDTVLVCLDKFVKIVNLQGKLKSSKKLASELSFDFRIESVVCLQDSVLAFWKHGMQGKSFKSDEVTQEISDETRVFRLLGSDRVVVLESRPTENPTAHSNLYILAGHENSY
Sequence of CDK10, construct: Full length (Q15131 whole entry, looked up): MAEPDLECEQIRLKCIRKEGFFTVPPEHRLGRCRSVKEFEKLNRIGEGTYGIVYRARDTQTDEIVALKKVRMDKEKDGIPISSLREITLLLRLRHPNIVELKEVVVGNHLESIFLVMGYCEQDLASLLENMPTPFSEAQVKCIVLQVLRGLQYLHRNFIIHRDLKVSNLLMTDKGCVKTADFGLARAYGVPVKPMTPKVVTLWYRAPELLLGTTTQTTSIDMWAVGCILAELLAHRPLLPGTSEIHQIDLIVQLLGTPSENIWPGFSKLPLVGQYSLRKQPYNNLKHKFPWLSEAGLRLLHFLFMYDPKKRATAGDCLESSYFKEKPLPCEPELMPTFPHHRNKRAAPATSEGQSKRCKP
Sequence of SLK, construct: Full length (Q9H2G2 whole entry, looked up): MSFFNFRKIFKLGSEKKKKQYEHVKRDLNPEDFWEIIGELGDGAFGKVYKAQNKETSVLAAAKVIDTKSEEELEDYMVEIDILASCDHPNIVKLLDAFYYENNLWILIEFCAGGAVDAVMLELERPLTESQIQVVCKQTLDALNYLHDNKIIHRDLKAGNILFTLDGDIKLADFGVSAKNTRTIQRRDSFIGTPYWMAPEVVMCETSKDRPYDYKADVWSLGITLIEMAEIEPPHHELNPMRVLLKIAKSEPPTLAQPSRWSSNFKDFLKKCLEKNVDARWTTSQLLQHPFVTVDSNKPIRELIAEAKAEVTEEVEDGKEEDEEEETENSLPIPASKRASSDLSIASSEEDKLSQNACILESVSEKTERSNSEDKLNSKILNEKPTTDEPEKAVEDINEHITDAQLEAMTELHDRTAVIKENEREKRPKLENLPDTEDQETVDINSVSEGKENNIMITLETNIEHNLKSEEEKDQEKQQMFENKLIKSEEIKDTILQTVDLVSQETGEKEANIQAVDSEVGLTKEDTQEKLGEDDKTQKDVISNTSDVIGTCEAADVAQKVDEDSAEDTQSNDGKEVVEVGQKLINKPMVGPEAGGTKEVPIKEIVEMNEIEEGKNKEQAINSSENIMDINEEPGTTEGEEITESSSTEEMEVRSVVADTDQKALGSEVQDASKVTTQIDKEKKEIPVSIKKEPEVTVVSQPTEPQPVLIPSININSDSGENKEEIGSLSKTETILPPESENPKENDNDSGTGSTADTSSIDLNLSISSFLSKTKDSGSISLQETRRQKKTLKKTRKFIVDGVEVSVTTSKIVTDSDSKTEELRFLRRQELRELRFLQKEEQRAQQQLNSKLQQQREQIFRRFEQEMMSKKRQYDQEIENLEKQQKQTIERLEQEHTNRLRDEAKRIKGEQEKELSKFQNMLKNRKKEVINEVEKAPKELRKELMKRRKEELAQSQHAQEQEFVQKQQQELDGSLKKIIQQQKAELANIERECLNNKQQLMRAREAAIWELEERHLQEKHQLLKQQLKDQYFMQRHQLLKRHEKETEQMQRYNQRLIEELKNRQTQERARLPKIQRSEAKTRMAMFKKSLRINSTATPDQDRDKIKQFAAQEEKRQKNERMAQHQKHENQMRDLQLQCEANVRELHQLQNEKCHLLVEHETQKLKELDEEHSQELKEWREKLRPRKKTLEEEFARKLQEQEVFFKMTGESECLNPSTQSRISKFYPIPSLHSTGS
Sequence of TNIK, construct: aa1-314 (Q9UKE5 1-314, looked up): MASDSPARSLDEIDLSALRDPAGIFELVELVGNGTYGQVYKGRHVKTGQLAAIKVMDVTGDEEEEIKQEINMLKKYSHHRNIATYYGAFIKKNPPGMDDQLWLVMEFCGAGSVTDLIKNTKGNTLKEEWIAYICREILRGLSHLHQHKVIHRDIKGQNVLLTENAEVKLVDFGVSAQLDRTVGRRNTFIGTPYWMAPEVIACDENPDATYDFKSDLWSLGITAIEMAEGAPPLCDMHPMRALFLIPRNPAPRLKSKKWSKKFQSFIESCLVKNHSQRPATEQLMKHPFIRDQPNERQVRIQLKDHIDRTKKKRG
Sequence of IKBKE, construct: Full length (Q14164 whole entry, looked up): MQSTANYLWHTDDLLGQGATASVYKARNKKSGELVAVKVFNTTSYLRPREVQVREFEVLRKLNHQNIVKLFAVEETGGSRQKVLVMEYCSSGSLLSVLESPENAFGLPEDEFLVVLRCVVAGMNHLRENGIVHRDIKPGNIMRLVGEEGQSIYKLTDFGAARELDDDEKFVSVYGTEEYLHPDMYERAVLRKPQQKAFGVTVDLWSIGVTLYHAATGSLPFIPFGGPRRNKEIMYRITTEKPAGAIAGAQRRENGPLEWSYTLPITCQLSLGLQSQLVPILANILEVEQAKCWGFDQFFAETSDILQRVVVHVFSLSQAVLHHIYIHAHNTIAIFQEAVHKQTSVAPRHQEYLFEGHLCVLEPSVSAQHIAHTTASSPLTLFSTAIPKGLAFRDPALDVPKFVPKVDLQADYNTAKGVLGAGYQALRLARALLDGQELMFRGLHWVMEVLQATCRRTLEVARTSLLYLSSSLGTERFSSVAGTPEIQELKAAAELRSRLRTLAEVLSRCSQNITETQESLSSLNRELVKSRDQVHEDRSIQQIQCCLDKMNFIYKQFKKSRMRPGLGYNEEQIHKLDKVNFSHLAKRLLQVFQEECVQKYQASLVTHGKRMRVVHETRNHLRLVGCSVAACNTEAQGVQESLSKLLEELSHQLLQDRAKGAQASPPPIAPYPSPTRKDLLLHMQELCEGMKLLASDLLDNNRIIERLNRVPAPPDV

Substance	relative phosphorylation
PKN2, construct: aa501-984 (from UniProt Q16513)	0.532
IKBKE, construct: Full length (from UniProt Q14164)	0.346
MAP4K5, construct: Full length (from UniProt Q9Y4K4)	0.585
NEK6, construct: Full length (from UniProt Q9HC98)	0.844
SIK3, construct: aa1-307 (from UniProt Q9Y2K2)	0.723
TNIK, construct: aa1-314 (from UniProt Q9UKE5)	0.761
SLK, construct: Full length (from UniProt Q9H2G2)	0.368
CDK10, construct: Full length (from UniProt Q15131)	0.232

Same assay, conditions: A fixed; at +2

Substance	relative phosphorylation
PKN2, construct: aa501-984 (from UniProt Q16513)	0.768
IKBKE, construct: Full length (from UniProt Q14164)	1.18
MAP4K5, construct: Full length (from UniProt Q9Y4K4)	0.999
NEK6, construct: Full length (from UniProt Q9HC98)	1.17
SIK3, construct: aa1-307 (from UniProt Q9Y2K2)	1.19
TNIK, construct: aa1-314 (from UniProt Q9UKE5)	1.16
SLK, construct: Full length (from UniProt Q9H2G2)	0.647
CDK10, construct: Full length (from UniProt Q15131)	0.641

Same assay, conditions: A fixed; at +3

Substance	relative phosphorylation
PKN2, construct: aa501-984 (from UniProt Q16513)	0.837
IKBKE, construct: Full length (from UniProt Q14164)	0.935
MAP4K5, construct: Full length (from UniProt Q9Y4K4)	0.641
NEK6, construct: Full length (from UniProt Q9HC98)	0.962
SIK3, construct: aa1-307 (from UniProt Q9Y2K2)	0.654
TNIK, construct: aa1-314 (from UniProt Q9UKE5)	0.938
SLK, construct: Full length (from UniProt Q9H2G2)	0.652
CDK10, construct: Full length (from UniProt Q15131)	0.676

Same assay, conditions: A fixed; at +4

Substance	relative phosphorylation
PKN2, construct: aa501-984 (from UniProt Q16513)	0.925
IKBKE, construct: Full length (from UniProt Q14164)	0.899
MAP4K5, construct: Full length (from UniProt Q9Y4K4)	0.969
NEK6, construct: Full length (from UniProt Q9HC98)	0.822
SIK3, construct: aa1-307 (from UniProt Q9Y2K2)	0.581
TNIK, construct: aa1-314 (from UniProt Q9UKE5)	1.13
SLK, construct: Full length (from UniProt Q9H2G2)	0.778
CDK10, construct: Full length (from UniProt Q15131)	0.671

Same assay, conditions: A fixed; at -1

Substance	relative phosphorylation
PKN2, construct: aa501-984 (from UniProt Q16513)	0.905
IKBKE, construct: Full length (from UniProt Q14164)	0.911
MAP4K5, construct: Full length (from UniProt Q9Y4K4)	0.963
NEK6, construct: Full length (from UniProt Q9HC98)	1.21
SIK3, construct: aa1-307 (from UniProt Q9Y2K2)	1.02
TNIK, construct: aa1-314 (from UniProt Q9UKE5)	1.07
SLK, construct: Full length (from UniProt Q9H2G2)	0.576
CDK10, construct: Full length (from UniProt Q15131)	0.931

Same assay, conditions: A fixed; at -2

Substance	relative phosphorylation
PKN2, construct: aa501-984 (from UniProt Q16513)	1.1
IKBKE, construct: Full length (from UniProt Q14164)	0.889
MAP4K5, construct: Full length (from UniProt Q9Y4K4)	1.36
NEK6, construct: Full length (from UniProt Q9HC98)	1.16
SIK3, construct: aa1-307 (from UniProt Q9Y2K2)	1.77
TNIK, construct: aa1-314 (from UniProt Q9UKE5)	1.21
SLK, construct: Full length (from UniProt Q9H2G2)	0.458
CDK10, construct: Full length (from UniProt Q15131)	0.896

Same assay, conditions: A fixed; at -3

Substance	relative phosphorylation
PKN2, construct: aa501-984 (from UniProt Q16513)	0.867
IKBKE, construct: Full length (from UniProt Q14164)	1.11
MAP4K5, construct: Full length (from UniProt Q9Y4K4)	0.963
NEK6, construct: Full length (from UniProt Q9HC98)	1.04
SIK3, construct: aa1-307 (from UniProt Q9Y2K2)	0.786
TNIK, construct: aa1-314 (from UniProt Q9UKE5)	1.01
SLK, construct: Full length (from UniProt Q9H2G2)	0.681
CDK10, construct: Full length (from UniProt Q15131)	0.838

Same assay, conditions: A fixed; at -4

Substance	relative phosphorylation
PKN2, construct: aa501-984 (from UniProt Q16513)	1.11
IKBKE, construct: Full length (from UniProt Q14164)	1.12
MAP4K5, construct: Full length (from UniProt Q9Y4K4)	1.03
NEK6, construct: Full length (from UniProt Q9HC98)	1.26
SIK3, construct: aa1-307 (from UniProt Q9Y2K2)	1.12
TNIK, construct: aa1-314 (from UniProt Q9UKE5)	1.08
SLK, construct: Full length (from UniProt Q9H2G2)	1.05
CDK10, construct: Full length (from UniProt Q15131)	0.851

Same assay, conditions: A fixed; at -5

Substance	relative phosphorylation
PKN2, construct: aa501-984 (from UniProt Q16513)	0.963
IKBKE, construct: Full length (from UniProt Q14164)	1.26
MAP4K5, construct: Full length (from UniProt Q9Y4K4)	1.3
NEK6, construct: Full length (from UniProt Q9HC98)	1.16
SIK3, construct: aa1-307 (from UniProt Q9Y2K2)	1.32
TNIK, construct: aa1-314 (from UniProt Q9UKE5)	1.36
SLK, construct: Full length (from UniProt Q9H2G2)	1.07
CDK10, construct: Full length (from UniProt Q15131)	0.845

Same assay, conditions: D fixed; at +1

Substance	relative phosphorylation
PKN2, construct: aa501-984 (from UniProt Q16513)	0.318
IKBKE, construct: Full length (from UniProt Q14164)	0.306
MAP4K5, construct: Full length (from UniProt Q9Y4K4)	0.17
NEK6, construct: Full length (from UniProt Q9HC98)	0.481
SIK3, construct: aa1-307 (from UniProt Q9Y2K2)	0.537
TNIK, construct: aa1-314 (from UniProt Q9UKE5)	0.223
SLK, construct: Full length (from UniProt Q9H2G2)	0.242
CDK10, construct: Full length (from UniProt Q15131)	0.124

Same assay, conditions: D fixed; at +2

Substance	relative phosphorylation
PKN2, construct: aa501-984 (from UniProt Q16513)	0.322
IKBKE, construct: Full length (from UniProt Q14164)	1.07
MAP4K5, construct: Full length (from UniProt Q9Y4K4)	0.718
NEK6, construct: Full length (from UniProt Q9HC98)	0.764
SIK3, construct: aa1-307 (from UniProt Q9Y2K2)	0.686
